The record followed here is the supplement of paper PMC9170038.

For the data set, the system named is MS2 coat protein. Put plainly: apparent KD of MS2 coat protein; designed switch direction (-1 OFF switch, 1 ON switch): -1; higher = weaker reporter binding. The procedure, abridged:
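The buffer was Tris-HCl pH 7.5 with KCl, MgCl2, BSA, DTT, tRNA and Tween-20. In it, SNAP-549-labelled MS2 coat protein was titrated in doubling steps from 0.7 or 1.5 nM to 3 µM over chip-bound RNA switches transcribed by stalled E. coli RNA polymerase on Illumina chips. Apparent KD is the per-design median over clusters of curve fits to normalised fluorescence.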

Setting [1] is: input ligand: microRNA oligo, concentration not stated.
[2] abbreviates: Eterna round: R95, input ligand: FMN 200 uM.
The mark [3] stands for this setting: Eterna round: R95, input ligand: microRNA oligo, concentration not stated.
Where [4] appears, read: Eterna round: R95, input ligand: none.

Regarding “CAGUACUGAGGAUAUACAUGAGGAUCACCCAUGUGUGUGAGAAAAUUAAUAAAAGAAUGUAGAAGGCGGUGCUG [JR_Ex3_Sub041] (Eterna round: R97, puzzle: Exclusion 3)”, the “apparent KD of MS2 coat protein” value is 645 nM (input ligand: FMN 200 uM) and 357 nM (input ligand: none).

In the case of “UCUCGCAGGCAAGGAUAUCCUACAUUGUUCUGGCCCGGGCAUGUUACAUGAGGAUCACCCAUGUGGGAGAAGGUGCGCCAGGGC [Design 34] (Eterna round: R96, puzzle: Exclusion NG 2)”, the “apparent KD of MS2 coat protein” value reads like this: (input ligand: FMN 200 uM) 30.6 nM; under setting [1], 16.3 nM; (input ligand: none) 30.6 nM.

In the case of “AAGUACCGUCACGAUAGUGAUGGUACAACAAGCAAGUGAACAUGAGGAUCACCCAUGUCCUCAAUUGCUCGUCUUAU [Sensor 3 - 71] (puzzle: Sensor v3, turn-off variant 2)”, the “apparent KD of MS2 coat protein” value stood at 28.1 nM under setting [2], 62.1 nM under setting [3] and 28.5 nM under setting [4].

On to “GCCGGAUAAGUGAGGAUAUGCCUAUGGAUACGUAGGCAGAAGGCACAUGAGGAUCACCCAUGUACCUCUCCGGC [JL-BMX4-4.25 Eli mod] (Eterna round: R97, puzzle: Brourd's mod of Exclusion 4)”, for which the “apparent KD of MS2 coat protein” value came out at 116 nM (input ligand: FMN 200 uM) and 17.5 nM (input ligand: none).

As to “GACUGGACAGGAUAUGUUCUUGAGCACUUGAGGAUCACCCAAGUCAUCAAGAACUCAGGCACAGAAGGGUUUAUGA [salish99_ex5_r4_008] (Eterna round: R97, puzzle: Exclusion 5)”, the “apparent KD of MS2 coat protein” value came to 29.6 nM (input ligand: FMN 200 uM) and 13.5 nM (input ligand: none).

In the case of “GGUUGGCGAGGAUAUACAUGAGGAUCACCCAUGUGAGGGAAAAAAGUGAGAACGAAAAGUAGAAGGCGCUGACG [salish99_ex3_r3_063] (puzzle: Exclusion 3)”, the “apparent KD of MS2 coat protein” value is, setting by setting: under setting [2], 10.5 nM; under setting [3], 54 nM; under setting [4], 80.5 nM.

For the sequence “AAUUAACUAGGAUAUACUUGAGGAUCACCCAAGUGGGCUCCACCUGCUUGGCUCCCAGGUAGAAGGAGUAUACA [Tioner] (Eterna round: R97, puzzle: Exclusion 3)”, the “apparent KD of MS2 coat protein” value amounted to 213 nM (input ligand: FMN 200 uM) and 538 nM (input ligand: none).

Regarding “CUUUUGUGAGGAUAUCAGUAGUAGAACAAUAGUACUACUACUGAGAAGGCACAUGAGGAUCACCCAUGUUCUUC [Fiskers Ex 4 Super stable 44 mod 5] (puzzle: Exclusion 4)”, the “apparent KD of MS2 coat protein” value under setting [3] came out at 27.8 nM.

As for “GUUAGUUAAGGAUAUACUGGGAGCUGCGGCGUCUCGCCGCAACAUGAGGAUCACCCAUGUAGAAGGUGACCAUU [JL ViennaUCT Enbibi mod 5] (puzzle: Exclusion 2)”, under setting [3], the “apparent KD of MS2 coat protein” value was 221 nM.

As to “GCAUCGGCAGGAUAUACGCCGUAUGACAUGAGGAUCACCCAUGUUCCCGAGUCACAGAAAGUAGAAGGGCUGGAUA [Eternabot (L2) Solution 70] (Eterna round: R97, puzzle: Exclusion 5)”, the “apparent KD of MS2 coat protein” value (input ligand: FMN 200 uM) amounted to 236 nM and the “apparent KD of MS2 coat protein” value (input ligand: none) came out at 182 nM.

As for “GUGUAGCGAGGAUAUACAUGAGGAUCACCCAUGUGAAUAAGAUAGAAUAAGAUAAAGUGUAGAAGGUGUAGUGU [Excluse me!!! 11 - Jieux - Exclusion 3] (puzzle: Exclusion 3)”, the “apparent KD of MS2 coat protein” value worked out at 46.7 nM under setting [2], 56 nM under setting [3] and 54.5 nM under setting [4].

Turning to “AAAAGGCUAGGAUAUACCAGUGGGUGUAAGAACUCAAAUUUACAUGAGGAUCACCCAUGUAGAAGGAGUAAAAU [Dilaed] (puzzle: Exclusion 2)”, the “apparent KD of MS2 coat protein” value under setting [3] turned out to be 19.5 nM.

For “CAGUACUGAGGAUAUACAUGAGGAUCACCCAUGUUUUCCAGCUAGGAAACUAGCAAGUGUAGAAGGCAGUACUG [Salish 065 m6] (Eterna round: R97, puzzle: Exclusion 3)”, the “apparent KD of MS2 coat protein” value (input ligand: FMN 200 uM) was 342 nM and the “apparent KD of MS2 coat protein” value (input ligand: none) turned out to be 25.6 nM.

“GAGAUGCGGAUAGGAUAUGGAAGAAAAGAAGGAUUAGAAGGGUUGGUUAGAAUACAUGAGGAUCACCCAUGUGAAUCAUGAGAA [AK ExNG1-2.3] (Eterna round: R96, puzzle: Exclusion NG 1)”: the “apparent KD of MS2 coat protein” value is, setting by setting: (input ligand: FMN 200 uM) 99.2 nM; under setting [1], 81.1 nM; (input ligand: none) 128 nM.

Take “GCCAGAGGAGGAUAUCUAAUAUAUCACAUGAGGAUCACCCAUGUCCAGCGAAAGCUGGAGGGAGAAGGCCUCUGGC [Fiskers Ex 5 - 23] (puzzle: Exclusion 5)”: the “apparent KD of MS2 coat protein” value under setting [2] amounted to 46 nM, the “apparent KD of MS2 coat protein” value under setting [3] was 98.2 nM and the “apparent KD of MS2 coat protein” value under setting [4] came out at 78.2 nM.

For the sequence “UCGAUGUGAGGAUAUAUUUUUUUUUUUCCUUAUGUUUUAUAACUUGAGGAUCACCCAAGUAGAAGGCGCUACGU [JR_Ex2_Sub063] (Eterna round: R97, puzzle: Exclusion 2)”, the “apparent KD of MS2 coat protein” value runs as follows: (input ligand: FMN 200 uM) 70.6 nM; (input ligand: none) 136 nM.

On to “GGAAAACAUGAGGAUCACCCAUGUAAGGAUAUGCAAAAGGAUAUAGAAGGAAAAUAAAGCAGAAGGUACAAAGG [salish99-ex1_r3_098] (puzzle: Exclusion 1)”, for which the “apparent KD of MS2 coat protein” value was 126 nM under setting [2], 23.7 nM under setting [3] and 127 nM under setting [4].

As to “AUGUGCACGCUGCGAUCCUACAUGAGGAUCACCCAUGUGGUCUGGUGGCGUGGGUCACCGGACUUGGCUCGUCUUGG [salish99_S_TOV1_R5_075] (Eterna round: R97, puzzle: Sensor, turn-off variant 1)”, the “apparent KD of MS2 coat protein” value is, setting by setting: (input ligand: FMN 200 uM) 139 nM; (input ligand: none) 170 nM.

Consider “GUACUGACAGGAUAUACAUGAGGAUCACCCAUGUCCUUAAGCUGACAAAAGUCAGCAAGUAGAAGGGUCUGUAC [Omei Ex3 Model Bachelor's Dilema v1] (Eterna round: R97, puzzle: Exclusion 3)”, for which the “apparent KD of MS2 coat protein” value reads like this: (input ligand: FMN 200 uM) 498 nM; (input ligand: none) 79.4 nM.

For “UUUUAACAUGAGGAUCACCCAUGUGAGGAUAUCGAAAUUUAUAUUUAUAUUAAUAUUUCGAGAAGGCACAUUUU [JMF 81] (puzzle: Exclusion 1)”, the “apparent KD of MS2 coat protein” value under setting [3] came to 176 nM.

As for “GGGAAGAACCAACAAGCAAACAUGAGGAUCACCCAUGUAGUAGGAGGAAGAAAGGUGAUUUAGAAAGCUCGACUUAU [AK-miRNA-r3-6] (Eterna round: R97, puzzle: Sensor, turn-off variant 1)”, the “apparent KD of MS2 coat protein” value by setting is: (input ligand: FMN 200 uM) 159 nM; (input ligand: none) 202 nM.

Regarding “GGAUAAAAUCGAGGAUAUACGCACCACUAACGAGUAGAAGGCGAACAUGAGGAUCACCCAUGUGAGUUCUCAAUAAGAAACACG [Prohibition 68 - Jieux - Exclusion NG 1] (Eterna round: R96, puzzle: Exclusion NG 1)”, the “apparent KD of MS2 coat protein” value (input ligand: FMN 200 uM) was 40.5 nM, the “apparent KD of MS2 coat protein” value under setting [1] turned out to be 23.9 nM and the “apparent KD of MS2 coat protein” value (input ligand: none) turned out to be 35.1 nM.

For the sequence “GCUUGUAGAGGAUAUACAAGGGCCCACGCGGCGAGAGCCGCACAUGAGGAUCACCCAUGUAGAAGGCUACUAUA [JL-ex2-4.23 ViennaUCT mod] (Eterna round: R97, puzzle: Exclusion 2)”, the “apparent KD of MS2 coat protein” value (input ligand: FMN 200 uM) was 125 nM and the “apparent KD of MS2 coat protein” value (input ligand: none) is 363 nM.
